From patent US20230016112A1 (IBIO, published 2023)
Values belong to the binder of their own block, whether it stands above or below them.

Biological target: T1, full-length CD25 (human, UniProt P01589 22-186, limits assumed)
T1 construct: The assays used soluble 'full-length CD25'; also called Hu CD25; IL-2 receptor alpha chain
T1 chain: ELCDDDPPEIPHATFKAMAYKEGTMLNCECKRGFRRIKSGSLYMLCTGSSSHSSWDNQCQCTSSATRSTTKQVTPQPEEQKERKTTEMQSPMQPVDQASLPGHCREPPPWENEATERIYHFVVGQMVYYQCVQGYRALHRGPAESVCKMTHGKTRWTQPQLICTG
Test: Octet biolayer interferometry, human IgG1 against CD25

Kd: 31.9 nM
B1: YU403-G05 (antibody)
scFv: PSGDLSLTCDVSGGSISRSNWWIWVRQPPGKGLEWIGEIYHTGSTNYNPSLKRRVTISVDKSKNQFSLNLSSVTAADTAVYYCARGKGSYAFDIWGLGTMVTVSSVLTQPHSVSESPGKTVTISCTGSGGNIARNYVQWYQHRPGRAPSTVIYEDDRRPSGVPDRFSGSTDISSNSASLTISGLKTEDEADYYCQSYDGNNHMVFGGGTRVTVL
notes: Tested as full-length human IgG1

Kd: 12.1 nM
B2: YU398-A11 (antibody)
scFv: PGRSLRLSCAASGFTFSSYGMHWVRQAPGKGLEWVAVISYDGSNKYYADSVKGRFTISRDNSKNTLYLQMNSLRAEDTAVYYCAKGQGDGMDVWGQGTTVTVSSYELTQPPSASGTPGQRVTISCSGSSSNVGSRTVSWFQQLPGTAPKLLIYSNNLRPSGVPDRFSGSKSGTSASLAISGLQSEDEADYYCAAWDDSLIGHVFGTGTKVTVV
notes: as for B1

Kd: 9.1 nM
B3: YU392-H04 (antibody)
scFv: QVQLQESGPGLVKPSGTLSLTCAVSGGSISSSNWWSWVRQPPGKGLEWIGEIYHSGSTNYNPSLKSRVTISVDKSKNQFSLKLSSVTAADTAVYYCARVNYGDYDWYFDLWGRGTLVTVSSQPVLTQPPSASGTPGQRVTISCSGSSSNIGSNFVTWYQQLPGTAPKLLIYSNNQRPSGVSDRFSASKSGTSASLAISRLQSQDEAEYYCAAWDDSLRSYVFGSGTKVTVV
notes: as for B1

Kd: 70.4 nM
B4: YU401-B01 (antibody)
scFv: PGSSVKVSCKASGGTFSSYAISWVRQAPGQGLEWMGGIIPIFGTANYAQKFQGRVTITADESTSTAYMELSSLRSEDTAVYYCAREMYYYYGMDVWGQGTTVTVSSDIVMTQSPSSLSASVGDRVTITCRASQSIITYLNWYQQKPGKVPKLLIYAASSLQSGVPSRFSGSGSGTDFTLTISSLQPEDFATYYCQQSYSTPPTFGQGTKLEIK
notes: as for B1

Kd: 3.86 nM
B6: YU397-D01 (antibody)
scFv: PSGTLSLTCAVSGGSISSSNWWSWVRQPPGKGLEWIGEIYHSGSTNYNPSLKSRVTISVDKSKNQFSLKLSSVTAADTAVYYCARARGGRYFDYWGQGTLVTVSSDIVLTQSPSFLSASVGDRVTITCRASQGISTYLAWYQQKPGTAPKVLMYAASTLHSGVPSRFSGSGSGTEFTLTISSLQPEDFAIYYCQQLNGYPTTFGGGTRVEIK
notes: as for B1

Kd: 54.5 nM
B13: YU400-D09 (antibody)
scFv: PGSSVKVSCKASGGTFSSYAISWVRQAPGQGLEWMGGIIPIFGTANYAQKFQGRVTITADESTSTAYMELSSLRSEDTAVYYCARDFNPFSITIFEMDVWGQGTTVTVSSQSVLTQPPSVSAAPGQKVTISCSGSSSNIGNNYVSWYQQLPGTAPKLLIYDNNKRPSGIPDRFSGSKSGTSATLGITGLQTGDEADYYCGTWDSSLSALVFGGGTKLTVL
notes: as for B1

Kd: 57.8 nM
B14: YU400-B07 (antibody)
scFv: PGRSLRLSCAASGFTFSSYGMHWVRQAPGKGLEWVAVISYDGSNKYYADSVKGRFTISRDNSKNTLYLQMNSLRAEDTAVYYCAKGDVNYGMDVWGQGTTVTVSSSYVLTQPPSVSVAPGKTARITCGGNNIGSKSVHWYQQKPGQAPVLVVYDDTDRPSGIPERFSGSNSGNTATLTISRVEAGDEADYYCQVWDSSSDLLWVFGGGTKLAVL
notes: as for B1

Kd: 15.3 nM
B17: YU401-G07 (antibody)
scFv: LGRSLRLSCAASGFTFSSYGMHWVRQAPGKGLEWVAVISYDGSNKYYADSVKGRFTISRDNSKNTLYLQMNSLRAEDTAVYYCAKGDVNYGMDVWGQGTTVTVSSSYVLTQPPSVSVAPGQTARISCGGSNIGSKTVNWYRKKAGQAPVLVVYDGRDRPSGIPERFSGSNSGNAATLIISRVEVGDEADYYCQVWDTSGDLHWAFGGGTKLTVL
notes: as for B1

Further lines, the binder ahead of its results:

B5: YU392-B11 (antibody)
scFv: PGATVKISCKVSGYTFTDYYMHWVQQAPGKGLEWMGLVDPEDGETIYAEKFQGRVTITADTSTDTAYMELSSLRSEDTAVYYCAVEGGRAPGTYYYDSSGLAYWGQGTLVTVSSQAGLTQPPSASGTPGQRVTISCSGSSSNIGSNYVYWYQQLPGTAPKLLIYSNNQRPSGVPDRFSGSKSGTSASLAISGLRSEDEADYYCATWDDSLSGVVFGGGTKLTVL
notes: as for B1
Kd: 65.6 nM

B7: YU392-H02 (antibody)
scFv: QLQLQESGPGLVNLSQTLSLTCTVSGGSISSGGYYWSWIRQHPGKGLEWIGYIYYSGSTYYNPSLKSRVTISVDTSKNQFSLKLSSVTAADTAVYYCARDSSSGPYGMDVWGQGTTVTVSSQSVLTQPPSVSVAPGQTARVTCGGSNIGSQSVHWYQQKPGQAPVLVVYDDYDRPSGIPERFSGSNSGNTATLTITRVDAGDEADYYCQIWDSSSAHVVFGGGTKLTVL
notes: as for B1
Kd: 10.6 nM

B8: YU390-B12 (antibody)
scFv: PGRSLRLSCAASGFTFSSYGMHWVRQAPGKGLEWVAVISYDGSNKYYADSVKGRFTISRDNSKNTLYLQMNSLRAEDTAVYYCAKELLEGAFDIWGQGTMVTVSSSYVLTQPPSLSVAPGQTARITCGGDNIETKSVHWYQQRPGQAPVLVVYDDDDRPSGIPERFSGSNSGNTATLTISRVEAGDEADYYCQVWDSSSGHREVFGGGTKLTVL
notes: as for B1
Kd: 13.7 nM

B9: YU392-A09 (antibody)
scFv: PGATVKISCKVSGYTFTDYYMHWVQQAPGKGLEWMGLVDPEDGETIYAEKFQGRVTITADTSTDTAYMELSSLRSEDTAVYYCATEGRYGMDVWGQGTTVTVSSQAVLTQPPSVSGTPGQRVTISCSGNNFNIGNNLVYWYQQLPGTAPKLLIYANDERPSGVPDRFSGSKSGTSASLAISGLRSEDDADYYCATWDDSLSGVVFGGGTKLTAL
notes: as for B1
Kd: 12.4 nM

B10: YU389-A03 (antibody)
scFv: PSQTLSLTCTVSGGSISSGGYYWSWIRQHPGKGLEWIGYIYYSGSTYYNPSLKSRVTISVDTSKNQFSLKLSSVTAADTAVYYCARGNLWSGYYFWGQGTLVTVSSQSVLTQPPSVSAAPGQKVTISCSGSSSNIGNNFVSWYQQVPGTAPKLLTYDSTKRPAGIPDRFSGSKSGTSATLEIAGLQTGDEADYYCGSWDTNLSGYVFGTGTKVTVL
notes: as for B1
Kd: 9.55 nM

B11: YU392-G09 (antibody)
scFv: QVQLVQSGAEVKKPGSSVKVSCKASGGTFSSYAISWVRQAPGQGLEWMGGIIPIFGTANYAQKFQGRVTITADESTSTAYMELSSLRSEDTAVYYCARDGAGNYDILTGDRSEDYYYYYGMDVWGQGTTVTVSSSYELTQPPSASGAPGQRVSISCSGGYSNIGSNTVNWYQQLPGAAPKFLIYSDNQRPSGVPDRFSGSKSGTSASLAISGLQSEDEADYYCATWDDSLNGPVFGGGTKLTVL
notes: as for B1
Kd: 20.2 nM

B12: YU392-E05 (antibody)
scFv: QVQLQESGPGLVKPSGTLSLTCTVSGGSISSSNWWSWVRQPPGKGLEWIGEIYHSGSTNYNPSLKSRVTISVDKSKNQFSLKLSSVTAADTAVYYCARGVIAAAGTYFDYWGQGTLVTVSSQAVLTQPPSASGTPGQRVTISCSGSRPNVASNSVNWYQQFPGTAPRLLIYSDNQRPSGVPDRFSGSKSGTSASLAISGLQFEDEADYYCETWDDSLRGVVFGGGTKVTVL
notes: as for B1
Kd: 16.1 nM

B15: YU392-E06 (antibody)
scFv: QLQLQESGPGLVKPSGTLSLTCAVSGGSISSSNWWSWVRQPPGKGLEWIGEIYHSGSTNYNPSLKSRVTISVDKSKNQFSLKLSSVTAADTAVYYCARERTHYYYGMDIWGQGTTVTVSSQSVLTQPPSTSGTPGQRVTISCSGSSSNIGSNTVNWYHQLPGTAPRLLIYSNNQRPSGVPDRFSGSKSGTSASLALSGLQSEDEGDYYCAAWDDSLNGYVFGTGTKVTVL
notes: as for B1
Kd: 8.3 nM

B16: YU392-G12 (antibody)
scFv: QVQLQESGSGLVKPSQTLSLTCAVSGGSISSGGYSWSWIRQPPGKGLEWIGYIYHSGSTYYNPSLKSRVTISVDRSKNQFSLKLSSVTAADTAVYYCARAGYYYGMDVWGQGTTVTVSSDIVMTQTPSSLSASVGDRVAITCQASRNIWSYVNWYQQKPGEAPRLLIYGASTLQRGVPSRFSGSGSGTGFTLTINSLQPEDFATYFCQQSHSTPITFGGGTRVDIK
notes: as for B1
Kd: 25.7 nM
